Assay results as given in patent US20230074436A1 (DENALI THERAPEUTICS, published 2023).
No end group written: not given here. *: point of attachment. Biotin = O=C1N[C@H]2[C@H](CS[C@H]2CCCCC(=O)*)N1

Legend:
asyn_113-127_126A [1] = target: T1, asyn_113-127_126A (human); experiment: Ala-scan peptide ELISA, row G, run 1
T1 construct: substitution is already in the entry; also called pep16
T1 peptide: Biotin-LEDMPVDPDNEAYAM
Protocol: (§1) 96-well Nunc plates were coated with 50 μL per well of 1 μg/mL streptavidin (from Jackson Immuno Research Laboratory) in PBS at 4° C. overnight. The plates were washed three times with PBST, and blocked with PBS containing 3% BSA at room temperature for 1 hour. The N-terminal biotinylated peptides were dissolved in Milli Q water to a concentration of 2 mg/mL, then further diluted to a concentration of 2 μg/mL with PBS. 50 μl of the diluted peptide was applied to the streptavidin-coated plates and incubated at 4° C. overnight. 2 μg/mL of biotinylated human alpha-synuclein was used as the positive control. The plates were washed three times with PBST before use. Purified antibody was diluted by serial dilution methods, from 20 μg/mL to 1 ng/mL, and 50 μL of the antibody solution was added to the peptide-coated wells. The plates were incubated for 1 hour at room temperature, then washed three times with PBST. Secondary detection antibody (goat anti-rat HRP (obtained from Southern Biotech)) was added with 1:5,000 dilutions and incubated for 1 hour at room temperature, then washed three times with PBST. Plates were developed with 50 μL/well of TMB substrate (Thermo Fisher) and quenched with 50 μL/well of 1 N sulfuric acid. The signal was quantified on a BioTek® plate reader at A450. A parallel repeat was performed for each peptide in a separate plate.

asyn_113-127_124P [2] = target: T2, asyn_113-127_124P (human); experiment: Ala-scan peptide ELISA, row G, run 1
T2 construct: substitution is already in the entry; also called pep14
T2 peptide: Biotin-LEDMPVDPDNEPYEM
Protocol: as §1

asyn_113-127_121A [3] = target: T3, asyn_113-127_121A (human); experiment: Ala-scan peptide ELISA, row G, run 1
T3 construct: substitution is already in the entry; also called pep10
T3 peptide: Biotin-LEDMPVDPANEAYEM
Protocol: as §1

asyn_113-127_119A [4] = target: T4, asyn_113-127_119A (human); experiment: Ala-scan peptide ELISA, row G, run 1
T4 construct: substitution is already in the entry; also called pep8
T4 peptide: Biotin-LEDMPVAPDNEAYEM
Protocol: as §1

asyn_113-127 [5] = target: T5, asyn_113-127 (human); experiment: Ala-scan peptide ELISA, row G, run 1
T5 construct: also called pep1
T5 peptide: Biotin-LEDMPVDPDNEAYEM
Protocol: as §1

asyn_113-127_124G [6] = target: T6, asyn_113-127_124G (human); experiment: Ala-scan peptide ELISA, row G, run 1
T6 construct: substitution is already in the entry; also called pep13
T6 peptide: Biotin-LEDMPVDPDNEGYEM
Protocol: as §1

asyn_113-127_115A [7] = target: T7, asyn_113-127_115A (human); experiment: Ala-scan peptide ELISA, row G, run 1
T7 construct: substitution is already in the entry; also called pep4
T7 peptide: Biotin-LEAMPVDPDNEAYEM
Protocol: as §1

asyn_113-127_120A [8] = target: T8, asyn_113-127_120A (human); experiment: Ala-scan peptide ELISA, row G, run 1
T8 construct: substitution is already in the entry; also called pep9
T8 peptide: Biotin-LEDMPVDADNEAYEM
Protocol: as §1

asyn_113-127_117A [9] = target: T9, asyn_113-127_117A (human); experiment: Ala-scan peptide ELISA, row G, run 1
T9 construct: substitution is already in the entry; also called pep6
T9 peptide: Biotin-LEDMAVDPDNEAYEM
Protocol: as §1

[10] = target: T10, biotinylated human alpha-synuclein (human, UniProt P37840 1-140); experiment: Ala-scan peptide ELISA, row G, run 1
Protocol: as §1

asyn_113-127_116A [11] = target: T11, asyn_113-127_116A (human); experiment: Ala-scan peptide ELISA, row G, run 1
T11 construct: substitution is already in the entry; also called pep5
T11 peptide: Biotin-LEDAPVDPDNEAYEM
Protocol: as §1

asyn_113-127_125A [12] = target: T12, asyn_113-127_125A (human); experiment: Ala-scan peptide ELISA, row G, run 1
T12 construct: substitution is already in the entry; also called pep15
T12 peptide: Biotin-LEDMPVDPDNEAAEM
Protocol: as §1

asyn_113-127_118A [13] = target: T13, asyn_113-127_118A (human); experiment: Ala-scan peptide ELISA, row G, run 1
T13 construct: substitution is already in the entry; also called pep7
T13 peptide: Biotin-LEDMPADPDNEAYEM
Protocol: as §1

asyn_113-127_127A [14] = target: T14, asyn_113-127_127A (human); experiment: Ala-scan peptide ELISA, row G, run 1
T14 construct: substitution is already in the entry; also called pep17
T14 peptide: Biotin-LEDMPVDPDNEAYEA
Protocol: as §1

asyn_113-127_122A [15] = target: T15, asyn_113-127_122A (human); experiment: Ala-scan peptide ELISA, row G, run 1
T15 construct: substitution is already in the entry; also called pep11
T15 peptide: Biotin-LEDMPVDPDAEAYEM
Protocol: as §1

asyn_113-127_123A = target: T16, asyn_113-127_123A (human); experiment: Ala-scan peptide ELISA, row F, run 2
T16 construct: substitution is already in the entry; also called pep12
T16 peptide: Biotin-LEDMPVDPDNAAYEM
Protocol: as §1

asyn_113-127_126A [16] = target: T1, asyn_113-127_126A; experiment: Ala-scan peptide ELISA, row F, run 2
Protocol: as §1

asyn_113-127_124P [17] = target: T2, asyn_113-127_124P; experiment: Ala-scan peptide ELISA, row F, run 2
Protocol: as §1

asyn_113-127_121A [18] = target: T3, asyn_113-127_121A; experiment: Ala-scan peptide ELISA, row F, run 2
Protocol: as §1

asyn_113-127_119A [19] = target: T4, asyn_113-127_119A; experiment: Ala-scan peptide ELISA, row F, run 2
Protocol: as §1

asyn_113-127 [20] = target: T5, asyn_113-127; experiment: Ala-scan peptide ELISA, row F, run 2
Protocol: as §1

asyn_113-127_124G [21] = target: T6, asyn_113-127_124G; experiment: Ala-scan peptide ELISA, row F, run 2
Protocol: as §1

asyn_113-127_115A [22] = target: T7, asyn_113-127_115A; experiment: Ala-scan peptide ELISA, row F, run 2
Protocol: as §1

asyn_113-127_120A [23] = target: T8, asyn_113-127_120A; experiment: Ala-scan peptide ELISA, row F, run 2
Protocol: as §1

asyn_113-127_114A = target: T17, asyn_113-127_114A (human); experiment: Ala-scan peptide ELISA, row F, run 2
T17 construct: substitution is already in the entry; also called pep3
T17 peptide: Biotin-LADMPVDPDNEAYEM
Protocol: as §1

asyn_113-127_117A [24] = target: T9, asyn_113-127_117A; experiment: Ala-scan peptide ELISA, row F, run 2
Protocol: as §1

[25] = target: T10, biotinylated human alpha-synuclein; experiment: Ala-scan peptide ELISA, row F, run 2
Protocol: as §1

asyn_113-127_116A [26] = target: T11, asyn_113-127_116A; experiment: Ala-scan peptide ELISA, row F, run 2
Protocol: as §1

asyn_113-127_125A [27] = target: T12, asyn_113-127_125A; experiment: Ala-scan peptide ELISA, row F, run 2
Protocol: as §1

asyn_113-127_118A [28] = target: T13, asyn_113-127_118A; experiment: Ala-scan peptide ELISA, row F, run 2
Protocol: as §1

asyn_113-127_127A [29] = target: T14, asyn_113-127_127A; experiment: Ala-scan peptide ELISA, row F, run 2
Protocol: as §1

asyn_113-127_113A = target: T18, asyn_113-127_113A (human); experiment: Ala-scan peptide ELISA, row F, run 2
T18 construct: substitution is already in the entry; also called pep2
T18 peptide: Biotin-AEDMPVDPDNEAYEM
Protocol: as §1

asyn_113-127_122A [30] = target: T15, asyn_113-127_122A; experiment: Ala-scan peptide ELISA, row F, run 2
Protocol: as §1

asyn_113-127 [31] = target: T5, asyn_113-127; experiment: Ala-scan peptide ELISA, row D, run 1
Protocol: as §1

[32] = target: T10, biotinylated human alpha-synuclein; experiment: Ala-scan peptide ELISA, row D, run 1
Protocol: as §1

asyn_113-127_125A [33] = target: T12, asyn_113-127_125A; experiment: Ala-scan peptide ELISA, row D, run 1
Protocol: as §1

B1: 20H4 (antibody, rat IgG2b, V domains shown)
VH: AVQLVESGGGLVQPKESLKISCAASGFTFSNAAMYWVRQAPGKGLELLARIRTKPNNYATYHADSVKGRFTISRDDSQSMVYLHMGNLKTEDTAMYYCTADMATGDYWGPGVMVTVSS
VL: DIQMTQSPPVLSVSVGDRVTLSCKASQNINKNLDWYQQKHGEAPKPLIYSTNNLQTGVPSRFSGSGSGTDYTLTISSLQPEDVATYYCYQYKSAWTFGGGTKLELR
notes: also called clone 20H4; rat 20H4
asyn_113-127_126A [1]
  A450: 0.098 OD
asyn_113-127_124P [2]
  A450: 0.044 OD
asyn_113-127_121A [3]
  A450: 0.091 OD
asyn_113-127_119A [4]
  A450: 0.048 OD
asyn_113-127 [5]
  A450: 0.089 OD
asyn_113-127_124G [6]
  A450: 0.099 OD
asyn_113-127_115A [7]
  A450: 0.058 OD
asyn_113-127_120A [8]
  A450: 0.08 OD
asyn_113-127_117A [9]
  A450: 0.102 OD
[10]
  A450: 0.141 OD
asyn_113-127_116A [11]
  A450: 0.098 OD
asyn_113-127_125A [12]
  A450: 0.046 OD
asyn_113-127_118A [13]
  A450: 0.107 OD
asyn_113-127_127A [14]
  A450: 0.094 OD
asyn_113-127_122A [15]
  A450: 0.049 OD
asyn_113-127_123A
  A450: 0.151 OD
asyn_113-127_126A [16]
  A450: 0.169 OD
asyn_113-127_124P [17]
  A450: 0.047 OD
asyn_113-127_121A [18]
  A450: 0.143 OD
asyn_113-127_119A [19]
  A450: 0.045 OD
asyn_113-127 [20]
  A450: 0.148 OD
asyn_113-127_124G [21]
  A450: 0.133 OD
asyn_113-127_115A [22]
  A450: 0.075 OD
asyn_113-127_120A [23]
  A450: 0.111 OD
asyn_113-127_114A
  A450: 0.139 OD
asyn_113-127_117A [24]
  A450: 0.163 OD
[25]
  A450: 0.284 OD
asyn_113-127_116A [26]
  A450: 0.165 OD
asyn_113-127_125A [27]
  A450: 0.051 OD
asyn_113-127_118A [28]
  A450: 0.172 OD
asyn_113-127_127A [29]
  A450: 0.162 OD
asyn_113-127_113A
  A450: 0.159 OD
asyn_113-127_122A [30]
  A450: 0.049 OD
asyn_113-127 [31]
  A450: 0.421 OD
[32]
  A450: 0.491 OD
asyn_113-127_125A [33]
  A450: 0.047 OD
